Test results reported in US20190382738A1.

T1: B-Raf kinase, P15056
T1 chain: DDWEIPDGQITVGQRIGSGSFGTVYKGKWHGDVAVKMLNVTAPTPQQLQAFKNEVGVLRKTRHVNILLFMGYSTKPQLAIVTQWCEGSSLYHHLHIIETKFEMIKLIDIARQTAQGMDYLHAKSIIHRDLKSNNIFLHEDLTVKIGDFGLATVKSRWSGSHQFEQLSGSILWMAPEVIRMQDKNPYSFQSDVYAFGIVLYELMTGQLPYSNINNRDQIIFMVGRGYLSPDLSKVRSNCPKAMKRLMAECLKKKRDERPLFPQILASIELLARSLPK


Columns and labels:
B-Raf kinase, P15056 [1] = target: T1, B-Raf kinase, P15056; test: intrinsic fluorescence titration, column head Kd (ITF) (µM)
B-Raf kinase, P15056 [2] = target: T1, B-Raf kinase, P15056; test: isothermal titration calorimetry

| Kd (B-Raf kinase, P15056 [1]) [nM] | ΔS (B-Raf kinase, P15056 [2]) [J/mol·K] | Binder |
| --- | --- | --- |
| 20 | – | LRKTRHVNI (modifications not checked) [6257] |
| – | -28.4 | GVLRKARHVNILLFMGYST (modifications not checked) [Peptide corresponding to SEQ ID NO: 8] |
